Assay results from publication PMC6290019 (2018).

Legend:
colE^des1 = assay: SPR
Im^wt2 [1] = biological target: T1, Im^wt2 (Escherichia coli, UniProt P04482 1-86); assay: SPR
T1 chain: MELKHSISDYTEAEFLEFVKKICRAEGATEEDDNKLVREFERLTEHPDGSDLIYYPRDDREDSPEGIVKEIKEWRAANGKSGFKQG

Im^wt2 [2] = biological target: T1, Im^wt2; assay: SPR
Im^wt2 [3] = biological target: T1, Im^wt2; assay: value from previous stopped-flow measurements
[4] = biological target: colE of designed pair 5 (cognate colE of Im^des5); assay: SPR; two-state reaction fit, koff1
[5] = biological target: colE of designed pair 5 (cognate colE of Im^des5); assay: SPR; two-state reaction fit, koff2
[6] = biological target: colE of designed pair 5 (cognate colE of Im^des5); assay: SPR; two-state reaction fit
colE^des2 = assay: SPR
Im^des7 [7] = biological target: T2, Im^des7; assay: SPR; two-state reaction fit, koff1
T2 chain: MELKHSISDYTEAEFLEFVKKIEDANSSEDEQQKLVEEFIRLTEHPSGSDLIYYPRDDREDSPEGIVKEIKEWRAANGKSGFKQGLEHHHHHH

Im^des7 [8] = biological target: T2, Im^des7; assay: SPR; two-state reaction fit, koff2
colE^des8 = assay: SPR
Im^des8 = biological target: T3, Im^des8; assay: SPR
T3 chain: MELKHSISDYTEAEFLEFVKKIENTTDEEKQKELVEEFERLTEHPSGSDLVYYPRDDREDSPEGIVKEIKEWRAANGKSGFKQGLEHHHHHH

Im^wt2 [9] = biological target: T1, Im^wt2; assay: SPR
Im^des3 = biological target: T4, Im^des3; assay: SPR
T4 chain: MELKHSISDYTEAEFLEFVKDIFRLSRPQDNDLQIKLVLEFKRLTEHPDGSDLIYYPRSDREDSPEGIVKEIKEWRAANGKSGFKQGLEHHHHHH

[10] = biological target: colE of designed pair 6 (cognate colE of Im^des6); assay: SPR; two-state reaction fit, koff1
[11] = biological target: colE of designed pair 6 (cognate colE of Im^des6); assay: SPR; two-state reaction fit, koff2
[12] = biological target: colE of designed pair 6 (cognate colE of Im^des6); assay: SPR; two-state reaction fit

B1: Im^des1 (designed binder)
chain: MELKHSISDYTEAEFLEFVKKIYSKGKLDQKLRWVEEFVRLTEHPSGSDLIYYPRDDREDSPEGIVKEIKEWRAANGKSGFKQGLEHHHHHH
Q: For B1, which koff (colE^des1) is on record?
A: 0.00033 s⁻¹

B2: colE^wt2 (His127Ala) (enzyme)
chain: MESKRNKPGKATGKGKPVGDKWLDDAGKDSGAPIPDRIADKLRDKEFKNFDDFRKKFWEEVSKDPDLSKQFKGSNKTNIQKGKAPFARKKDQVGGRERFELHHDKPISQDGGVYDMNNIRVTTPKRAIDIHRGK
Q: B2 was tested. Which koff (Im^wt2 [1]) did it give?
A: 0.00016 s⁻¹

Q: And the Kd (Im^wt2 [2])?
A: < 0.1 nM

Q: And the Kd (Im^wt2 [3])?
A: 0.004 pM

B3: Im^des5 (designed binder)
chain: MELKHSISDYTEAEFLEFVKKICNTDNENVQFKLVTEFERLTEHPDGSDLIYYPRDDREDSPEGIVKEIKEWRAANGKSGFKQGLEHHHHHH
Q: How did the koff [4] turn out when B3 was run?
A: 0.023 s⁻¹

Q: And the koff [5]?
A: 0.0011 s⁻¹

Q: And the Kd [6]?
A: 35 nM

B4: Im^des2 (designed binder)
chain: MELKHSISDYTEAEFLEFVKKIYNSTDEEKQKELVTEFERLTEHPSGSDLIYYPRDDREDSPEGIVKEIKEWRAANGKSGFKQGLEHHHHHH
Q: How did the Kd (colE^des2) turn out when B4 was run?
A: 0.32 nM

Q: What about the koff (colE^des2) of the same binder?
A: 0.00041 s⁻¹

B5: colE^des7 (designed binder)
chain: MESKRNKPGKATGKGKPVGDKWLDDAGKDSGAPIPDRIADKLRDKEFKNFDDFRKKFWEEVSKDPDLAKQFKRSNRKRIQQGYAPFAPQKDQVGGRTTFELHHDKPISQDGGVYDMNNIRVTTPKRAIDIHRGK
Q: With B5 as the binder, how does the koff (Im^des7 [7]) read?
A: 0.014 s⁻¹

Q: What about the koff (Im^des7 [8]) of the same binder?
A: 0.0014 s⁻¹

B6: Im^des4 (designed binder)
chain: MELKHSISDYTEAEFLEFVKKIDLASSGGGGNELLSRALVEEFERLTEHPDGSDLIYYPRDDREDSPEGIVKEIKEWRAANGKSGFKQGLEHHHHHH
Q: Which Kd (colE^des8) does the source give for B6 here?
A: > 100000 nM

B7: colE^des3 (designed binder)
chain: MESKRNKPGKATGKGKPVGDKWLDDAGKDSGAPIPDRIADKLRDKEFKNFDDFRKKFWKEVAKDPDLAKQFSKANQRNIKDGNAPFARESDQVGGRTTYELHHDKPISQDGGVYDMNNIRVTTPKRAIDIHRGK
Q: What does the source list for B7?
A: Kd (Im^des8): > 100000 nM; Kd (Im^wt2 [9]): > 100000 nM; koff (Im^des3): 0.019 s⁻¹

B8: Im^des6 (designed binder)
chain: MELKHSISDYTEAEFLEFVKKIFSQGRLEETRPLVEEFERLTEHPDGSDLVYYPRDDREDSPEGIVKEIKEWRAANGKSGFKQGLEHHHHHH
Q: B8 was tested. Which koff [10] did it give?
A: 0.29 s⁻¹

Q: And the koff [11]?
A: 0.00026 s⁻¹

Q: What about the Kd [12] of the same binder?
A: 161 nM
